Assay results taken from paper PMC8141644.
Like-named read-outs stand apart in the source and are kept apart here. One block for each substance: values may come before it.

Experiments:
PD-L1-ECD = PD-L1-ECD (UniProt Q9NZQ7); test: BLI
CD16a-ECD (human) [1] = target: CD16a-ECD (human) (UniProt P08637)
CD16a-ECD (human) [2] = target: CD16a-ECD (human) (UniProt P08637); test: BLI

CD16a-ECD (human), sequence (P08637 17-208): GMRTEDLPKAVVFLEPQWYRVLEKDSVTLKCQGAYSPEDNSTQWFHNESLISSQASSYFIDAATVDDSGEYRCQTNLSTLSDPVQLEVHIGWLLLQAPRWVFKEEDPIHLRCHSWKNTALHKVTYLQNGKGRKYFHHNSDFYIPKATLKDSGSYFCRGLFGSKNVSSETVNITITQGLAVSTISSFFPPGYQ
PD-L1-ECD, sequence (Q9NZQ7 19-238): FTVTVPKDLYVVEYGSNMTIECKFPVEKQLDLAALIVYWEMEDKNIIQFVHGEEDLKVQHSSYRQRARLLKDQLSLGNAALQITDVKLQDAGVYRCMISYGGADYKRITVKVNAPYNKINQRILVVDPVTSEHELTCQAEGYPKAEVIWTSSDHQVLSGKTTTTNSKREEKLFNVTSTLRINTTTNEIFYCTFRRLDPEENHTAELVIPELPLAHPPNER

Substance: bispecific hdFEB4-1-4×hNKE14-8 (bispecific antibody)
- EC50 of the ADCC reporter bioassay (Promega G7010, luciferase; A431 target cells; 0.2 nM – 13.3 nM antibody) (CD16a-ECD (human) [1]): 0.362 nM

Substance: hNKE14-8 (from UniProt P01857)
- Kd (CD16a-ECD (human) [2]): 15.5 nM

Substance: bispecific hdFEB4-1-4×hNKE14-8 (from UniProt P01857)
- Kd (CD16a-ECD (human) [2]; bispecific antibody): 16.5 nM

The next lines start with the values.

- Kd (PD-L1-ECD): 5.8 nM
Substance: ICI12 (from UniProt P01857)

- Kd (PD-L1-ECD): 3.2 nM
Substance: ICI13 (from UniProt P01857)
